Experimental data as given in publication PMC8672344.

Molecular target: Y75H holo-HasAp (heme-loaded hemophore HasAp, Y75H variant) (Pseudomonas aeruginosa) (UniProt G3XD33)
Assay: SPR

HasR outer membrane receptor in styrene-maleic acid lipid nanodisc (HasR-SMALP)
Kd: 394 nM
